The data set can be described thus: soluble on expression in E. coli; label from the status in PepcDB or PDB records.
Turning to “MANVEAIPGYLTATFPTLPIEIKDYVSAILKENSDEITSLDEVMDAVGEHLQASVENLCEVGAKNACQQLLKLLHGDNLPKAIKQQEATTKRLEQTVDMAAENQNFEALQSIWKVQTRDTPTTVDKKKLAKAEDRAAAKAEARADAPVERKKKKNEPSATASQAPIRDSGARGANSKDIKLESVDISIGTKQLLSCADVTMAFGRRYGLVGRNGIGKTTLLKMISSQQLKIPAGISMLSVEQEVEGDDTLVLDAVLMSDTKRQTLLDREKTLQSRINKDNINDAEKTKWNDELSKLYIEMEALQLDKAPARASSLLYGLGFTPDEQKRPTKEFSGGWRMRVALARALFVKPDLLLLDEPTNMLDMRAVYWLEGHLQGWEGTILTVSHDRKFLNEICTDIVHLHTRRLDHYKGNYDQFEKTMKEKLTQQQREYESQQQLRQHTQEFIDKFRYNAKRAPMVQSRIKMLEKLPVLLPVELESDIHFKFPECEVLSNPVLQLDEVSFRYNEDSPYLFRKLNLGTHANSRICIVGENGAGKTTLLKLLLDDLQPSVGLRNVNRRIRIAYFTQHHVDQLDMETSAIEVLMKNHPGKTQEDYRAALGRFGLAGDMALQSVETLSGGQKSRLAFANLALMQPNYLILDEPTNHLDVETVEALGKALNVFNGGVVLVSHDEQLIELVCKELWVVKDRMVTTLEGGLEEYRKQVYKQLQLTA”, the “soluble on expression in E. coli” value is on record as “not soluble”.
As for “MSLSNMTQQTRTQQARETMKRVYRYQAANQTRSVIRRSGKTRFIKDTDWERGVFWSCVAAAWLATDDAEYLEGVMNYTLHTGFRPGPNLRFADDLICCQAYLDVWPQIAVPEALEPTIKAVSAMVDEPKPGREDWWWCDSLFMAPATFAALSQRTGDARYLAYMDTAFWDAVDYLRDPDSGLFYRDHRYIPDGNGTELREENGEKVFWSRGIGWVLAAIPRLLARMPEDYTGRQRYLDLFTDLADKVIRYQQADGLWRTSLLDPQRFPAPESSATALFCYGLSWGINQGILAPETYLPVVEKAWDALQGCIHDNGMMGWVQLPAFNPRDVKFEHNMDYGAGAYLLAASEMLRLAEGHHHHHH”, the “soluble on expression in E. coli” value is “soluble”.
The same measure for “MGTVEKSSNNDASVTDDIRSAEYYHGMVPRQDAEGFLKREGDFLVRKTEQMPGKVVLAMSVRVTDELCRHFMLNMDPTSNKFYFEHTHQESTISELINWHMTTKTPISAASGAKIRRPMERSPWLINHDSIVANKKLGEGAFGDVFIAELDQGGKQEVAVKTMRAEATREARLRFMKEARLMRKYQHKHVVKLIGVAIHEHPLMIVMEYCPNGSLLSHLKKNKVSLIEKLRFTTEAADGIAYLERSKCIHRDIAARNCLLSAKNELKISDFGMSDNKDEIKDETLEKVPIKWLAPETMQEKVYTHKTDIWTFGVLVWEIYSDGAEPYPGLTKIQTRAKIVVNDYRMKMPDGTHPTVADVVTGTCWQKNPEKRSTMDSIHKKLREFYESKK”: “not soluble”.
For the sequence “MNLDKVNKYIKDFEKTIKKPKINFDKSKFYVGVDLGTANIVITILDKDGKPVAGVTQRSRVVRDGIVVDFMEAIEIVRKLKENLEKKLGIEITEGYTAIPPGVEQGSVRAIVNVIESAGIDVLKVVDEPTAASYVLGITDGVVVDLGGGTTGISILEKGKVIFVADEPTGGTHMTLVLAGSYGIDFETAEDIKTDKKKEKEVFVQITPVLQKMAAIVKKYIKDYKVKDVFLVGGACSFDGSESIFERELGLNIYKPYMPVYITPLGIALAGMKSLEHHHHHH”, the “soluble on expression in E. coli” value is “soluble”.
Consider “SSQVPDVMVVGEPTLMGGEFGDEDERLITRLENTQFDAANGIDDEGGSGGHMGSGGTPEIPMCAGCDQHILDRFILKALDRHWHSKCLKCSDCHVPLAERCFSRGESVYCKDDFFKRFGTKCAACQLGIPPTQVVRRAQDFVYHLHCFACVVCKRQLATGDEFYLMEDSRLVCKADYETAKQ”, for which the “soluble on expression in E. coli” value is on record as “soluble”.
The same measure for “MGSDKIHHHHHHMVMIQLCEWQQQGQFLSINDQQIFTRQAGDRKAPALLLIHGYPSASWDWEGMWHELTQHYFVVTLDMLGFGFSDKPKNVDYLISQQADIYEAVLQQFGVSHYHILAHDYGDTVAQELLARQLDGNSTLSINSVCFLNGGLFPETHKPLLIQTLLLSPLGPLVSKLINKQKFAVNLQRIFGPSTPPTPQVIDALWQLLNHNNGLAVMHKLINYITQRKQHRERWVGAIINSTIPIKLIAGVKDPISGQHMIDHYRKLIPHADVTELPTLGHYPQVEDANAIIAAYLQFRLNRT”: “not soluble”; for “MGSDKIHHHHHHVSEKMWGCCPNHWKSFGSSCYLISTKENFWSTSEQNCVQMGAHLVVINTEAEQNFITQQLNESLSYFLGLSDPQGNGKWQWIDDTPFSQNVRFWHPHEPNLPEERCVSIVYWNPSKWGWNDVFCDSKHNSICEMKKIYL”: “not soluble”; for “MGSDKIHHHHHHMNQDLLHKYFKGETSVDEEKRILNWVDESEENRKTLQKERMLFDIALFTDSKRKMREKAGAGARIIPMLRWSARIAAAVIVAVSCGFLINEYQYDKLAQLQTVTVPAGQRAQITLADGTKVWLNSESTLSYRSDFGRRDRDVELDGEAYFEVAKNKEIPFYVNTETNQVRVVGTHFNVCAYKGSNEFETTLVEGIVDIYAYDNERPLTRLTKNEFFGSYQGKYKKAVLPSYDYLRWREGLYCFDDSPFSCILTKLEKYYNVKITVENPKVLNYRCTGKFKEQDGVEHILKVIQKDHPFTYSISEEGDSIRIE”: “not soluble”.
The same measure for “MKVLPMLLALAVPGLCWAEDPQTFEGAGVVFEVQVEKNLVDIDHRLYRLPNSTVRNGMPSLFQVKPGSVVSYSGTVSQPWSTITDIYIHKQMSEQELAEMIEKEQPRQDGEEQPR”: “not soluble”; for “MGSDKIHHHHHHMKIALIIENSQAAKNAVVHEALTTVAEPLGHKVFNYGMYTAEDKASLTYVMNGLLAGILLNSGAADFVVTGCGTGMGSMLAANAMPGVFCGLVIDPTDAFLFGQINDGNAISMPYSKGFGWAAELNLQDVYRKLFDGERGLGYPRERAEIMRKNRGILRELKDASCRDMLTVLKTVDQDLLRAAIAGEKFAELFYPNCKDDAIANYLRSLDA”: “not soluble”; for “MGHHHHHHSHMDSKAIAERIKKLQAQQEHVRIGGKGTPRRKKKVIHKTAAADDKKLQSNLKKLSVTNIPGIEEVNMIKDDGTVIHFNNPKVQTSVPANTFSVTGSADNKQITEMLPGILNQLGPESLTHLKKLANNVTKLGPDGKGEDEDVPELVGDFDAASKNETKADEQ”: “not soluble”.
As for “MKLYSILVFHKNVDTSDVKLFKSECDLSSFSFFQRGSVQEFMTFTAKLLVERSGLGARSSVKENEYLVHCYVRNDGLSAVCVTDAEYQQRVAMSFLGRVLDDFTTRVPATQWPGIRSDKDCSYTGLKDLLEKWQNPREADPMTRVQEEVEETKMVMHNTIQSVLDRGEKLDDLVKKSENLSDQSKMFYTSARKMNKCCNYV”, the entry is “not soluble”.
Regarding “MKQLYGVIGNPIGHSLSPVMHNDAFEHLKMDAHYHAFLVKEEVLGEAVRGLKALGISGFNVTTPHKVAIMDYLDEIDPLAKQIGAVNTVVHKDGKLIGYNTDGIGFVRALQSISSEPLQEKRILLLGAGGASRAIYFSLADAGVKEIDVANRTVDKAKELIAACTATVHSVALSLEKATKEQGNYDIIIQTTTIGMHPRVEHTPLQISSLKKGTIVSDIIYNPFETKILCEAKEQGAIIQNGIDMFVYQGALAFEMWTGCVPNIERMKQLVIRNLEANIYVNRKTKKIFTCTSTSFNTNFSSRKRRSK”, the “soluble on expression in E. coli” value is listed as “not soluble”.
For “MDTLHQQLCTHSGSTSPKGLYLWGDVGRGKTFLMDLFYDALPQRGKLRLHFHRFMARVHQALKVHAGQRDPLKLIAKNLAKECKVLCFDEFFVSDIGDAMILAGLFETLFAQGVVLVATSNIPIERLYENGLARHRFLPCIALLQAHTQMLHLNGKQDHRLHALSAKPSAEALAATSHNIGLTGTLDFDGIFAALTQNSPSIKDGKLRVCQREISVIRATTENQLPSVAWFDFNALCDGPRSQLDYIEIASRFKVLMLSNVPRLGGEVKGWIRARGTEDGTGDNQAATTGERQLSYAVNDDPARRFISLIDELYDQDVSLYLSCDVPLTELYQGGALSFEFRRTYSRLIEMSHSAAMKLTY”, the “soluble on expression in E. coli” value is listed as “not soluble”.
For “MGSDKIHHHHHHMVGIILASHGEFAKGILQSGAMIFGDQENVQAVTLMPSEGPDDVKAKMKDAIASFDNQDEVLFLVDLWGGTPFNQANSLFEEHKDKWAIVAGMNLPMVIEAYGARLSMESAHEIAASIISTAKEGVKVKPEELEPEDAGKASQGSAKQSNTGAPGSFEYVLARIDSRLLHGQVATAWTKAMQPTRIIVVSDAVAKDELRKKLIQQAAPPGVKAHVVPINHMIKLAKDDQHFGGQRAMLLFENPEDVLRVVEGGVPLKTINVGSMAHSTGKVQPNKVLAFNQEDIDTFNKLKQSGLTFDVRKVPNDSKGNMDEIIKKAQDELNKQK”, the “soluble on expression in E. coli” value is on record as “not soluble”.
For “GMRNELPPENAYRILESGPIVLVSTRGADGRANLMTMGFHMMMQHEPPLVGAIIGPWDYSHQALSETGECVLAVPTVDLAETVVDIGNCSGDALDKFGHFGLTPVPAQTVDAPLVRQCWANLECRVVDDGWARRYNLWVLEVQRIWIDTARKETRLIHHQGDGRFSVDGDTLDLGERMTKWRHLMG”, the “soluble on expression in E. coli” value was “soluble”.
The same measure for “LTAGKVDIPTPDGKMPAYRAAPAGKKDLPTLLVVSEIFGVHEYIQDVCRRLARLGYQAVAPELFARYGDPTGYTDIGRLRAEVVDKAGDRQVLADLDAAAAWAAANGGNSSRLGILGFCWGGRIVWLYAAHNPGLKAGAAWYGQLGGQASELKPRSVLESIGDLKAPVLGAYGGKDAGIPLSDVDRMRLALAKGPRAARDSRIDVYPEAPHAFHADYRPSYRKAEAEQAWQRMLDWFGQH”: “not soluble”; for “MSLEHILLPLDLSEVSKPLAISVAELASRHKSRVTLLHVIEEAMVIHVAAGYDVSSLIRSIEKNAREKLDKIKKLMMEKGANVVVYEDIPVGNPGTVISEVAEEVGATEIVMGSKGLGIFRILPLGSTVRETVKISRKPVIRLKTYKENGHVKVAYSPMLFRKILVGADRNTSKSMIDYAVNAASTDDGKVILAHIIEPPLEEPSYEVKNVFKYGEKAGEERGVEVEIVVARGRPDKMLTAIASQMDASSVLVGRTVERRLSELILGSTLDRLMTLCELPLIVYPLEGHHHHHH”: “soluble”; for “MGSDKIHHHHHHMSSKVKVIAFYLPQFHPIPENDEWWGKGFTEWTSVGRAKKYYRGHYQPRVPADLGYYDLRLPQVRQQQADLAKEAGISAFCYWHYWFGNGKQLLENPLQEVVKLGEPDFPFCLGWANHTWLNKSWNREKQTVIPKPLILQEYPGKKDVDCHFYTMLPMFRDQRYFRIHGKLLFLIYAPLDIPNFKYFKMRWNELASQNDLPGFYFIANSEDISNIKNPIIREFEAVSLCRLYSAWNIEGKKVNNIVIRITRNISRILGYSLNKISYKKAIEKIDTPYYEEDRVYPNIIPGWDNSPRRGPGAFIFHKATPALFKKHVKMILNRIKDKPDEDKVIFLKSWNEWAEGNYMEPDLKWGKGYIRALREALEEDAK”: “not soluble”.
As for “MTLDLDNMTQAEFDEVMAEIQLQSPNIFQLISDFVNKKVTSVEIDDLLNMKRAETGKALSPLQIQELQYMLEDFSPELIHEALKEAVSQGKANFAYIKVILNRWKQDNLLTVELVRNSRAAREAKKQQTNQLEPTSYEDWIPTQEKPF”, the entry is “not soluble”.
The same measure for “MGSDKIHHHHHHMVTQMLEGKKVAILVETEFIPEEIAAYRQHFEELGATVHFMSRLWGNETVQFVSDVDEIGKSLQYLDVNIDFQSVDVNEYAAVIMAANYTSVRLRYFQPPPGQQISPEQTRTAPAIQFFAQAMANHKIIKGLLCHGLWLLTPMPELLRGRKVICHEVVLADIANAGAVYVPPPVNSQPNDPGNIVVDRDLVTGRAGHDVYAFIDAIAHQIASQEQRCLETQRR”: “not soluble”.

Values taken from the DeepSol protein solubility set.
